Measured values reported in the supplement of paper PMC12764529.
± gives the half width of the 95% confidence interval.

What was measured:
[1] = folding stability dG unfold from chymotrypsin proteolysis; higher = more stable
Outline: (§1)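 Only designs with AlphaFold2 dimer inter-PAE above 15 were retained; each was a mini-protein under 80 residues with no cysteine, in a PA-tagged cDNA display construct. After digestion with trypsin and chymotrypsin and sequencing, K50 was inferred by Bayesian fitting of counts, and unfolding free energy was derived per protease or combined against a sequence-predicted unfolded-state K50 and a shared folded-state K50.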

[2] = folding stability dG unfold (combined trypsin and chymotrypsin); higher = more stable
Outline: as §1

[3] = folding stability dG unfold from trypsin proteolysis; higher = more stable
Outline: as §1

Sequence | folding stability dG unfold [1] [kcal/mol] | folding stability dG unfold [2] [kcal/mol] | folding stability dG unfold [3] [kcal/mol]
SKKVVFVTYPKTSVKEIVEKLKENPNTEFVFLMPSSVGPEFYEKLKKALKEANIPKEQKVLFLPVEENSLSA [r9_670_TrMRF] | 3.106 ± 0.015 | 3.04 ± 0.077 | 2.92 ± 0.13
SAGGSAGGKRTVQIQFPMGPQWLDKLRDAFPNVDIEELEYDEGPGWHRIKIKVDSPEKIRDFIKSAGGSAGG [r6_334_TrROS] | 1.41 ± 0.079 | 0.991 ± 0.18 | 0.63 ± 0.19
SVPADAKPGVVPERVVLVIVVPPELLDEDGRLRPENLEIAAGEAAEAARKLREAFPDVPIEDVGVVVVEGSA [r9_943_TrMRF] | 0.466 ± 0.029 | 0.705 ± 0.046 | 0.869 ± 0.02
SMITSTTTTDPNSNTTTTTYTYPDTTYTVTRTLNPDNTVTVTVTATTPPGPTTPLSTVNLSPTDTLTLPVSA [r9_1172_JUSTAS] | 1.26 ± 0.068 | 1.36 ± 0.054 | 1.34 ± 0.031
SAGGSAGGSGIPVEPIPVRNPKGEIVEVIRFPEDFALVVFPSGERALLRGPELSLRDVVFFPLSAGGSAGGS [r12_491_TrMRF] | 0.305 ± 0.054 | 0.533 ± 0.055 | 0.675 ± 0.023
SAGEKKKVVIVVHIHIEAESEEDREKALEEARKLAEELARELKEKLGLPEDVKEVVVIVHIHPRSEEEKSAG [r5_436_TrROS_Hall] | 2.42 ± 0.083 | 2.25 ± 0.12 | 2.01 ± 0.086
SAGGMTLEELAARVGRVEVEEAEDGGRVLRVTIPLAGPGGPPAPRTFLIEIPPDRPDLTIAEVLARLGSAGG [r13_319_TrMRF] | 1.84 ± 0.057 | 1.66 ± 0.07 | 1.38 ± 0.064
SAGGSAGGMKTVTTPVYAVMPEEEAEALAKELEEKYPNVEIEVEREELPDGRVRVTITVTKPLGSAGGSAGG [r6_105_JUSTAS] | 1.55 ± 0.054 | 1.4 ± 0.067 | 1.19 ± 0.022
SAGMTFKNPGSDKTLTYEPETGAITLHNGDSVSTLPLPPGTSFTVTVDPEKGVVTITVPETGATITLPLSAG [r5_858_JUSTAS] | 0.248 ± 0.22 | 0.803 ± 0.11 | 1.07 ± 0.028
SAGGEKPKEVEIEEVVVKNEETGEEVRFFRIRDKETDEWYVLAVVRNKDGEEKVVKMSAEEAKKLLESAGGS [r8_421_TrROS_Hall] | 3.7 ± 0.044 | 3.59 ± 0.14 | 3.13 ± 0.065
SAGGMIVANVNPETDKVTLLITRPVVLYDEETGELREEEVTLVITASLEELEKLEEESGLPLLIIPSSAGGS [r8_337_TrMRF] | 2.16 ± 0.071 | 1.92 ± 0.15 | 1.63 ± 0.1
SAGAKAEPGPSGRLRIYLPDEPIELDVTEDGTVTLTFPNGEKVEFPVEKEKAALVLAELNALGAVVVPQSAG [r5_753_TrMRF] | 1.09 ± 0.055 | 0.712 ± 0.084 | -0.367 ± 0.19
SAGGSAGGSAGGSMPVKLDEIIDYDPKKKVLTVLLTHPDGSKSLVVVPGKSIEEIKEANSAGGSAGGSAGGS [r4_357_TrMRF] | 0.709 ± 0.029 | 0.648 ± 0.098 | 0.314 ± 0.029
SAGGSAGGSAGGKTIVVELEDGSKATITVDEDGNVTVEVYDEKTGEKKTFTIPAEALKPSAGGSAGGSAGGS [r10_838_TrROS_Hall] | 2.95 ± 0.066 | 2.73 ± 0.16 | 2.53 ± 0.16
SAGMTALFTDSSGKEVTFSHPNLELTVDPETGVVSAYEPESNLKVEVKVAPDKVTVTVYSGSSSKEIPLSAG [r5_786_JUSTAS] | 0.956 ± 0.16 | 0.574 ± 0.11 | -0.226 ± 0.064
SAGEFKIDILPGDNVARITSPEGSFLAPFTATFTFDVPDIADPNKIKPKPVVFNLVIEMKLDDFFDLLSSAG [r5_234_TrMRF] | 4.17 ± 0.17 | 3.36 ± 0.15 | 2.49 ± 0.1
SAGGKLTELIRSLFEKLNVPLEPLETGPNSAIFRFPGKPGVFELPGNSRIVIFEDGLVVVVAPPNDLSAGGS [r8_297_TrMRF] | 1.57 ± 0.093 | 1.61 ± 0.081 | 1.51 ± 0.1
SAGRIHVMVFPLDPKDGKWEWVWTFTIDFKPGEKLTLDEIADDIPPKGYMVMIWFTPDTITITIWRRKDSAG [r5_269_TrROS] | 5.33 ± 0.082 | 4.96 ± 0.12 | 3.87 ± 0.092
SAGGSAGGSAGGGKKILGVQPELFYDPENGTLYVKTVAVGEDENGAPGDADISVEPFPLLSAGGSAGGSAGG [r7_892_TrMRF] | -0.596 ± 0.54 | -0.277 ± 0.26 | 0.242 ± 0.053
SANMPPGDWKPINIKVKIERPGGKPEFEYPIYKHPDGMIMIFIHFPIPPGAYKIKIEFPGNGKENEFKFSAG [r14_280_TrROS] | 2.84 ± 0.09 | 2.29 ± 0.32 | 1.52 ± 0.058
SAGGSAGGSAGGKIIVVKDKETGKYRVIIVDKKTKKTIVVEVDPNTTLEEALKKAKELLKSAGGSAGGSAGG [r7_138_TrROS_Hall] | 3.97 ± 0.12 | 3.52 ± 0.24 | 3.05 ± 0.12

Sequence | folding stability dG unfold [1] [kcal/mol] | folding stability dG unfold [2] [kcal/mol] | folding stability dG unfold [3] [kcal/mol]
SAGSEEEKKAIAEELKEKILKERPELQKKEYTVEVEITPLPDDSIRITVTVTLPSGETETREYVYPNKSAGG [r19_194_JUSTAS] | 2.95 ± 0.21 | 3 ± 0.24 | 2.71 ± 0.26
SATVTLVSVEKEGDKTTVTTRDPSGYTVTVTNPDGSIVLAPIPAEGAEAAIAAIKAAHPGVTVTLEAAASAG [r14_528_JUSTAS] | 1.24 ± 0.031 | 1.15 ± 0.11 | 0.617 ± 0.036
SAKPVAEGPIRIPNGFEIEITQIKPDKENGEIVIPIEIEMWRPERDPEDPNQPKWEPQEMNIAFTIPLDSAG [r14_888_TrROS] | 0.119 ± 0.81 | 0.857 ± 0.22 | 1.3 ± 0.14
SAGIKIKDISRDPNGYVEVTIVYPPGKSIKEIIELIRKLFGFKIEKVEIYPSPNGVYITYRFRIPEGAISAG [r5_774_TrROS] | 4.47 ± 0.058 | 4.13 ± 0.12 | 3.15 ± 0.11
SAGKKKVIIVKVKPEDLEKLLEAIKKLPKEKVKRIEIEVNGKLYLIEVTDKEIKIYDIETGEEKTIKLSAGG [r19_154_TrROS_Hall] | 2.6 ± 0.061 | 2.39 ± 0.56 | 2.1 ± 0.22
SAGGSAKRKVEIEIVLSAEELEEAIKEGKPLSEELQKRIEELLKKAEEAGIDEVRIRIVPPGLPEPSAGGSA [r15_304_TrROS_Hall] | 1.22 ± 0.036 | 1.16 ± 0.12 | 0.89 ± 0.089
SAGRIEIDKIEPGKPVRIKIKIEMPDPNGKKRKMDFTRRVRVDPENGMIYIPITMPNGRPIPIMINVKKSAG [r5_743_TrROS] | 0.552 ± 0.43 | 0.619 ± 0.29 | 0.313 ± 0.23
SAGGSAGGMTAVEVKEETVPITLTSSFFPGGVPVPGAAVSTITITTTTTIEPPTGKTVKVTVAGSAGGSAGG [r6_424_JUSTAS] | -0.658 ± 0.12 | -0.423 ± 0.074 | -0.318 ± 0.037
SAGGPVLRLSFPTRTPDGELVRVEVVYDPETGALLVRVYSLTRPNRAVLYLVDPENPLTVLRAEELPLSAGG [r13_400_TrMRF] | 3.01 ± 0.071 | 2.82 ± 0.18 | 2.47 ± 0.11
SAGKTATFTFTLPLPENDLILRVTVRVEEVEDIGEKKVYRVNVEIDLIDKDGVPHRFSFSFLVPAEELFSAG [r14_916_TrMRF] | 5.14 ± 0.11 | 4.83 ± 0.16 | 3.39 ± 0.15
SAGGSAGGSPMKIEAVELEDGTVAYRLEDGTVLLVTKNEDGTYTVKVFKNGKLVEEKEIKLPPSAGGSAGGS [r12_451_TrROS_Hall] | 3.277 ± 0.03 | 2.99 ± 0.071 | 2.28 ± 0.069
SAGGSDRVLVPAGPSDYDVLVVVTPGPGDLVGVDALVIHPDGTPLAVRGVLDPTTGGISPVAVDPLSAGGSA [r2_402_TrMRF] | 0.243 ± 0.051 | 0.258 ± 0.038 | 0.28 ± 0.024
SAGGSAGGSAGGGSFVLTRHTRTGLRRRVYFDPETGELTVELETGTESRTTLSPLSPDLSAGGSAGGSAGGS [r10_376_TrMRF] | 0.748 ± 0.064 | 0.489 ± 0.058 | -0.215 ± 0.2
SAGGSAGGSAGMTRTVTFTITDPNSSNTTTITVPTTSEQDVAAAKAALKAANPNVTITLTSAGGSAGGSAGG [r11_233_JUSTAS] | 0.954 ± 0.092 | 0.718 ± 0.076 | 0.3 ± 0.12
SAGKIEKIVITKKKDGYVIKVYYKDNKKVKTYKAGKTLEEIKKKLEEEGFEIVKVEVKKVKPGEKVEISAGG [r19_386_TrROS_Hall] | 3.23 ± 0.21 | 3.06 ± 0.43 | 2.32 ± 0.18
SAGGSAGGSPPGWTIMMFEITISITVPRVEVYDPKDGKPRAEVPYVRVSIPIPIFIIFPAGAFSAGGSAGGS [r12_600_TrROS] | 4.24 ± 0.12 | 3.77 ± 0.11 | 2.93 ± 0.17
SAGGSAGGSAGMVVSVDRATGTFTATDPALGTTTTVPGSEEEVRAYWAERFPDRPVTITASAGGSAGGSAGG [r11_614_JUSTAS] | -0.221 ± 0.38 | -0.0207 ± 0.15 | -0.00347 ± 0.076
SAGGAGDQPVVIVATGSDGSPRVFPFKTKEPFKVTVNFPDEKRVFTVPADEPFVFDAPDGDILLDASSAGGS [r16_456_TrMRF] | 0.697 ± 0.12 | 0.394 ± 0.095 | -0.23 ± 0.11
SAGGSAGGSAGDFELDFEWHRTNDHVVLSNKARDPDNGKPLYISIIFDPDPGKLDISIMPSAGGSAGGSAGG [r17_242_TrROS] | -0.858 ± 0.59 | 0.0261 ± 0.083 | 0.396 ± 0.036
SAGKPKVIFIEGMTKEQLRAAIDEAKKKLKPGDIIVVRSKEAADALKELLPDLTVYLVDEETKEVKKLPSAG [r5_391_TrROS_Hall] | 2.1 ± 0.067 | 2.08 ± 0.14 | 1.91 ± 0.14
SAGGGSVSVTPVKEIPGPGTTTLYRETHPDDRTVLITYNPATGTVTVTTYKGNTKTSTTTYNTPESLSAGGS [r16_457_JUSTAS] | 1.53 ± 0.13 | 1.42 ± 0.098 | 1.05 ± 0.035
